The values that follow come from paper PMC3018788 (The EMBO Journal, 2010).

Test [1] addresses recombinant MBP-tagged HsPABPC1 (human, UniProt P11940 1-636). The test is described as follows: pull-down.
For test [2], the target named is recombinant MBP-tagged DmPABPC1 (D. melanogaster, UniProt P21187 1-634). The test is described as follows: pull-down.
Chain of recombinant MBP-tagged DmPABPC1 (P21187 whole entry): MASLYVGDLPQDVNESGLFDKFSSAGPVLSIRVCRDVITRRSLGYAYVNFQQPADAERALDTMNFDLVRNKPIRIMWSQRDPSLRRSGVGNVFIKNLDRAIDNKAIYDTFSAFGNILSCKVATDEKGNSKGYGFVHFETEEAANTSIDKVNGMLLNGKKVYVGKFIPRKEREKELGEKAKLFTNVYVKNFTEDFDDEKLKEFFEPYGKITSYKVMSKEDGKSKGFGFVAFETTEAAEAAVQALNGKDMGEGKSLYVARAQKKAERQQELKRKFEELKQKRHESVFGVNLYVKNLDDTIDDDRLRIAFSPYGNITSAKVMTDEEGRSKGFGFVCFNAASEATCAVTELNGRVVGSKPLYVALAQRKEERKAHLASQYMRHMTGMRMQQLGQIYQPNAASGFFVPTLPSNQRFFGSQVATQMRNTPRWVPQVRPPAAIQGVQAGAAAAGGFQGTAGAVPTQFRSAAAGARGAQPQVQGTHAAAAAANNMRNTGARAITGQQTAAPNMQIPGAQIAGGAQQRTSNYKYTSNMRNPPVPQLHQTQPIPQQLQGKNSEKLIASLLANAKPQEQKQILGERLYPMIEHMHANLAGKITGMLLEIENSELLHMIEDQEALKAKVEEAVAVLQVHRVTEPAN

Chain of recombinant MBP-tagged HsPABPC1 (P11940 whole entry): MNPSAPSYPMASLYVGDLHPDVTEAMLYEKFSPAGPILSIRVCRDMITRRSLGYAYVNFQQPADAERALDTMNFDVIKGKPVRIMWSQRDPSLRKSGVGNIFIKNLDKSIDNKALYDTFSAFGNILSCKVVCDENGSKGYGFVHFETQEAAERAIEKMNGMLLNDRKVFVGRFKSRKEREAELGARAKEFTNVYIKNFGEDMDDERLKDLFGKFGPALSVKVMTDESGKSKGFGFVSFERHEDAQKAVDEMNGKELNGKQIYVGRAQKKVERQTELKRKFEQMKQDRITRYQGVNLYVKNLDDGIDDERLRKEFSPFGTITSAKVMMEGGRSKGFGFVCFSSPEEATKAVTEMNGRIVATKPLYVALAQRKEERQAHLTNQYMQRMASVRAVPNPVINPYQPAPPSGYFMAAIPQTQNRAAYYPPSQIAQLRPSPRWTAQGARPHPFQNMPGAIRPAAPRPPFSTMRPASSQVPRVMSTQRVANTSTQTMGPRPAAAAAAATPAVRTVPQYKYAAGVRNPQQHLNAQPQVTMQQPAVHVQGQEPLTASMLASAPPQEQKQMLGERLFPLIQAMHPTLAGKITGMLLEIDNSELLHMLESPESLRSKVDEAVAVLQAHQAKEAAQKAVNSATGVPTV

B1: GST-TNRC6B-SD (domain or fragment, human, UniProt Q9UPQ9-1 1361-1723, looked up)
chain: SSNASWPPEFQPGVPWKGIQNIDPESDPYVTPGSVLGGTATSPIVDTDHQLLRDNTTGSNSSLNTSLPSPGAWPYSASDNSFTNVHSTSAKFPDYKSTWSPDPIGHNPTHLSNKMWKNHISSRNTTPLPRPPPGLTNPKPSSPWSSTAPRSVRGWGTQDSRLASASTWSDGGSVRPSYWLVLHNLTPQIDGSTLRTICMQHGPLLTFHLNLTQGTALIRYSTKQEAAKAQTALHMCVLGNTTILAEFATDDEVSRFLAQAQPPTPAATPSAPAAGWQSLETGQNQSDPVGPALNLFGGSTGLGQWSSSAGGSSGADLAGASLWGPPNYSSSLWGVPTVEDPHRMGSPAPLLPGDLLGGGSDSI
In the case of B1, the binding result in test [1] is given as “binds”.

B2: GST-GW182-SD (domain or fragment, D. melanogaster, UniProt Q8SY33 937-1384, looked up)
chain: NENKDWSVAQPTSAATAYTDLVQEFEPGKPWKGSQIKSIEDDPSITPGSVARSPLSINSTPKDADIFANTGKNSPTDLPPLSLSSSTWSFNPNQNYPSHSWSDNSQQCTATSELWTSPLNKSSSRGPPPGLTANSNKSANSNASTPTTITGGANGWLQPRSGGVQTTNTNWTGGNTTWGSSWLLLKNLTAQIDGPTLRTLCMQHGPLVSFHPYLNQGIALCKYTTREEANKAQMALNNCVLANTTIFAESPSENEVQSIMQHLPQTPSSTSSSGTSGGNVGGVGTSANNANSGSAACLSGNNSGNGNGSASGAGSGNNGNSSCNNSAAGGGSSSNNTITTVANSNLVGSSGSVSNSSGVTANSSTVSVVSCTASGNSINGAGTANSSGSKSSANNLASGQSSASNLTNSTNSTWRQTSQNQALQSQSRPSGREADFDYISLVYSIVDD
B2: the binding result in test [2] is recorded as “binds”.
